Drawing on patent US20230210927A1, this text covers luminescence intensity due to luciferase activity (pGL2-p53 promoter, Dual-Luciferase Reporter Assay) in the MSC-TERT-tetoneE1B55K cell line with doxycycline; 4-fold increase with E1B55K alone for one substance.

For this assay, the target named is E1B55K protein (adenovirus early region 1B-55 kDa) (adenovirus type 5) (UniProt P03243). Kind of assay: cell-based or functional assay.
Sequence of UniProt P03243 (P03243 whole entry): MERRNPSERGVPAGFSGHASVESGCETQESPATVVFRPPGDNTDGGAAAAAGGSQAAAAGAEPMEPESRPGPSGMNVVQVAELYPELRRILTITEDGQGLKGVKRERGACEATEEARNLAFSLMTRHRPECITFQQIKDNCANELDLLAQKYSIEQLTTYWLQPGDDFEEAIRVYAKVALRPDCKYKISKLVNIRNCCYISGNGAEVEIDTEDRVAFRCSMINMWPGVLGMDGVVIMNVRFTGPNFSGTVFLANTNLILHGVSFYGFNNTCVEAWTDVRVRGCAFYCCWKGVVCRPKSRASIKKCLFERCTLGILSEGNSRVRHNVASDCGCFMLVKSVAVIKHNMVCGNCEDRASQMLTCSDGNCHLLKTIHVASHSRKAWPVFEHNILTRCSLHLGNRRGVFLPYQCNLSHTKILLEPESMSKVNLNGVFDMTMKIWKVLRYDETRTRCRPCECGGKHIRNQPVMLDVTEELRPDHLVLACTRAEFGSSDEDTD

Regarding E4orf6 protein (adenovirus), the luminescence intensity due to luciferase activity (pGL2-p53 promoter, Dual-Luciferase Reporter Assay) in the MSC-TERT-tetoneE1B55K cell line with doxycycline; 4-fold increase with E1B55K alone is below 1.5 fold.
